# From patent US20050277762A1 (published 2005)
# What was measured:
# [1] = biological target: T1, ubiquitin aldehyde (Ubal) (UniProt P0CG47 1-76, C-terminal residue as aldehyde); assay: competition: wild type yeast lysate pre-incubated with increasing Ubal, then [^125I]-UbVS labeling
# Source text: Reactions were quenched with sample buffer, resolved by 10% SDS-PAGE and analyzed by autoradiography. Identity of bands was assigned based on the absence of a band corresponding to the molecular weight of a DUB deleted in that strain.
# [2] = biological target: T1, ubiquitin aldehyde (Ubal); assay: competition: lysate pre-treated with Ubal, then [^125I]-UbVS labeling
Binder,binding result [1],binding result [2]
"Ubp6 (enzyme, S. cerevisiae, UniProt P43593 1-499, looked up, also called Ubp6p) MSGETFEFNIRHSGKVYPITLSTDATSADLKSKAEELTQVPSARQKYMVKGGLSGEESIKIYPLIKPGSTVMLLGTPDANLISKPAKKNNFIEDLAPEQQVQQFAQLPVGFKNMGNTCYLNATLQALYRVNDLRDMILNYNPSQGVSNSGAQDEEIHKQIVIEMKRCFENLQNKSFKSVLPIVLLNTLRKCYPQFAERDSQGGFYKQQDAEELFTQLFHSMSIVFGDKFSEDFRIQFKTTIKDTANDNDITVKENESDSKLQCHISGTTNFMRNGLLEGLNEKIEKRSDLTGANSIYSVEKKISRLPKFLTVQYVRFFWKRSTNKKSKILRKVVFPFQLDVADMLTPEYAAEKVKVRDELRKVEKEKNEKEREIKRRKFDPSSSENVMTPREQYETQVALNESEKDQWLEEYKKHFPPNLEKGENPSCVYNLIGVITHQGANSESGHYQAFIRDELDENKWYKFNDDKVSVVEKEKIESLAGGGESDSALILMYKGFGL",binds,
"Ubp1 (enzyme, S. cerevisiae, UniProt P25037 1-809, looked up, also called Ubp1p) MDLFIESKINSLLQFLFGSRQDFLRNFKTWSNNNNNLSIYLLIFGIVVFFYKKPDHLNYIVESVSEMTTNFRNNNSLSRWLPRSKFTHLDEEILKRGGFIAGLVNDGNTCFMNSVLQSLASSRELMEFLDNNVIRTYEEIEQNEHNEEGNGQESAQDEATHKKNTRKGGKVYGKHKKKLNRKSSSKEDEEKSQEPDITFSVALRDLLSALNAKYYRDKPYFKTNSLLKAMSKSPRKNILLGYDQEDAQEFFQNILAELESNVKSLNTEKLDTTPVAKSELPDDALVGQLNLGEVGTVYIPTEQIDPNSILHDKSIQNFTPFKLMTPLDGITAERIGCLQCGENGGIRYSVFSGLSLNLPNENIGSTLKLSQLLSDWSKPEIIEGVECNRCALTAAHSHLFGQLKEFEKKPEGSIPEKLINAVKDRVHQIEEVLAKPVIDDEDYKKLHTANMVRKCSKSKQILISRPPPLLSIHINRSVFDPRTYMIRKNNSKVLFKSRLNLAPWCCDINEINLDARLPMSKKEKAAQQDSSEDENIGGEYYTKLHERFEQEFEDSEEEKEYDDAEGNYASHYNHTKDISNYDPLNGEVDGVTSDDEDEYIEETDALGNTIKKRIIEHSDVENENVKDNEELQEIDNVSLDEPKINVEDQLETSSDEEDVIPAPPINYARSFSTVPATPLTYSLRSVIVHYGTHNYGHYIAFRKYRGCWWRISDETVYVVDEAEVLSTPGVFMLFYEYDFDEETGKMKDDLEAIQSNNEEDDEKEQEQKGVQEPKESQEQGEGEEQEEGQEQMKFERTEDHRDISGKDVN",binds,
"Ubp2 (enzyme, S. cerevisiae, UniProt Q01476 1-1272, looked up, also called Ubp2p) MPNEDNELQKAIENHHNQLLNQDKENADRNGSVIEDLPLYGTSINQQSTPGDVDDGKHLLYPDIATNLPLKTSDRLLDDILCDTIFLNSTDPKVMQKGLQSRGILKESMLSYSTFRSSIRPNCLGSLTDQVVFQTKSEYDSISCPKYNKIHVFQAVIFNPSLAEQQISTFDDIVKIPIYHLKVSVKVRQELERLKKHVGVTQFHSLDHLHEYDRVDLSTFDSSDPNLLDYGIYVSDDTNKLILIEIFKPEFNSPEEHESFTADAIKKRYNAMCVKNESLDKSETPSQVDCFYTLFKIFKGPLTRKSKAEPTKTIDSGNLALNTHLNPEWLTSKYGFQASSEIDEETNEIFTEYVPPDMVDYVNDLETRKIRESFVRKCLQLIFWGQLSTSLLAPNSPLKNTKSVKGMSSLQTSFSTLPWFHLLGESRARILLNSNEQTHSPLDAEPHFINLSVSHYYTDRDIIRNYESLSSLDPENIGLYFDALTYIANRKGAYQLIAYCGKQDIIGQEALENALLMFKINPKECNISELNEATLLSIYKYETSNKSQVTSNHLTNLKNALRLLAKYTKSDKLKFYVDHEPYRALSQAYDTLSIDESVDEDIIKTAYSVKINDSPGLKLDCDRALYTIAISKRSLDLFNFLTEECPQFSNYYGPEKLDYQEALKLLQVNENASDETILKIFKQKWFDENVYEPDQFLILRAALTKISIERNSTLITNFLLTGTIDPNSLPPENWPTGINNIGNTCYLNSLLQYYFSIAPLRRYVLEYQKTVENFNDHLSNSGHIRRIGGREISRGEVERSIQFIYQLRNLFYAMVHTRERCVTPSKELAYLAFAPSNVEVEFEVEGNKVVDQTGVLSDSKKETTDDAFTTKIKDTSLIDLEMEDGLNGDVGTDANRKKNESNDAEVSENEDTTGLTSPTRVAKISSDQLENALEMGRQQDVTECIGNVLFQIESGSEPIRYDEDNEQYDLVKQLFYGTTKQSIVPLSATNKVRTKVERFLSLLINIGDHPKDIYDAFDSYFKDEYLTMEEYGDVIRTVAVTTFPTILQVQIQRVYYDRERLMPFKSIEPLPFKEVIYMDRYADTENPLLLAKKKETEEMKQKLKVMKNRQRELLSRDDSGLTRKDAFLESIKLLESDTIKKTPLKIEAANDVIKTLRNNVQNIDNELMKLYNDINSLEEKISHQFDDFKEYGYSLFSVFIHRGEASYGHYWIYIKDRNRNGIWRKYNDETISEVQEEEVFNFNEGNTATPYFLVYVKQGQEGDIEPLKRILK",binds,
"Yuh1 (enzyme, S. cerevisiae, UniProt P35127 1-236, looked up, also called Yuh1p) MSGENRAVVPIESNPEVFTNFAHKLGLKNEWAYFDIYSLTEPELLAFLPRPVKAIVLLFPINEDRKSSTSQQITSSYDVIWFKQSVKNACGLYAILHSLSNNQSLLEPGSDLDNFLKSQSDTSSSKNRFDDVTTDQFVLNVIKENVQTFSTGQSEAPEATADTNLHYITYVEENGGIFELDGRNLSGPLYLGKSDPTATDLIEQELVRVRVASYMENANEEDVLNFAMLGLGPNWE",binds,

# Results, then the binder that gave them:
binding result [1],binding result [2],Binder
,binds,"USP14 (TGT) (enzyme, mouse (EL-4 cell lysate), UniProt Q9JMA1 1-493, looked up, also called p58) MPLYSVTVKWGKEKFEGVELNTDEPPMVFKAQLFALTGVQPARQKVMVKGGTLKDDDWGNIKMKNGMTVLMMGSADALPEEPSAKTVFVEDMTEEQLATAMELPCGLTNLGNTCYMNATVQCIRSVPELKDALKRYAGALRASGEMASAQYITAALRDLFDSMDKTSSSIPPIILLQFLHMAFPQFAEKGEQGQYLQQDANECWIQMMRVLQQKLEAIEDDSGRETDSSSAPAVTPSKKKSLIDQYFGVEFETTMKCTESEEEEVTKGKENQLQLSCFINQEVKYLFTGLKLRLQEEITKQSPTLQRNALYIKSSKISRLPAYLTIQMVRFFYKEKESVNAKVLKDVKFPLMLDVYELCTPELQEKMVSFRSKFKDLEDKKVNQQPNANDKNSPPKEIKYEPFSFADDIGSNNCGYYDLQAVLTHQGRSSSSGHYVSWVRRKQDEWIKFDDDKVSIVTPEDILRLSGGGDWHIAYVLLYGPRRVEIMEEESEQ"
binds,,"Ubp15 (enzyme, S. cerevisiae, UniProt P50101 1-1230, looked up, also called Ubp15p) MSSEDELGSIGTVFPGSPIDKSIGSILPQFDEEVETLLEDSFTWNIPDWNELTNPKYNSPRFRIGDFEWDILLFPQGNHNKGVAVYLEPHPEEKLDETTGEMVPVDPDWYCCAQFAIGISRPGNGDTINLINKSHHRFNALDTDWGFANLIDLNNLKHPSKGRPLSFLNEGTLNITAYVRILKDPTGVLWHNFLNYDSKKVTGYVGFRNQGATCYLNSLLQSYFFTKYFRKLVYEIPTEHESPNNSVPLALQRAFYQLQVSDIPLDTLELTRSFGWDTAESFTQHDVQELNRILMDRLENNMKGTPVEGKLNEIFVGKMKSYIKCINVDYESARVEDFWDLQLNVKNFKNLQESFDNYIEMELMNGENQYAAQDYGLQDAQKGVIFESFPPVLHLQLKRFEYDFNYDQMVKVNDKYEFPETIDLSPFVDKDVLKKTLDSENKDKNPYVYNLHGVLVHSGDISTGHYYTLIKPGVEDQWYRFDDERVWRVTKKQVFQENFGCDRLPDEKVRTMTRGEYQNYIIQRHTSAYMLVYIRQEQEEDLLRPVLESDVPKHVITRVREEIKERETKEKEIREAHLYVTLRLHSIKEFIHYEGFDYFAHDGFRLFAEELNDSGLQQINLKVLRTTKLSDIFASIKETMNIPQERDVKYWKMDYRRNSTLRLTQPINFESVNITLQEALKKEKKRTMQTQYGEEGVASTEEDDKALLETVSFLDLFIEEPYLELQFLNKLKEASLISKAQLDDELISTIRTNLPELTKGGIEPVFATDNKSNLLFVKSYDPHTQKLLGFGHFAVNQLQQLSDISAIIEDSISSNEKLTFYEEVQPGTINEIYMKETIYDADIDTGDIVSFEVPGAVLPDTFPVYATIKDFYSYLRYRVKLKFSKFDGSSEEYGVSNEIPESFEFWISAYAPYDDLARMVSKYAHVKPEYLKIIALYSNGRFVLKSTSLLNDYLLKDFNCDQIPPFAFEVLSVPLKELERLRPIKLYWLKNSYIHYQCFEFEVANDYTESQFLEKVQHKIGFTDEEKENILLWTNTNFQFQGLLSDQNTFKDVSKHSLLFGRILPEESKLFKELNRLENVQTSSLEDFMDDENATDRPMDDEQDLGMAIEHSEDMKGRIVVVQQYFKDLENRHGISFLFNLIPDETFPKTKDRLHAKFGLGQKEFSKIKLSIGYSTEEGTVFRSLQGFSDEELDKVILYDIMSNLDYIYMDHPDRLRSHSSYDRPMIIKN"
